Reference: US20040014721A1, “Method for using tethered bis(polyhydroxyphenyls) and O-alkyl derivatives thereof in treating inflammatory conditions of the central nervous system” (Oklahoma Medical Research Foundation, priority 2002, published 2004)

T1: human 5LOX (Homo sapiens, UniProt P09917)
T1 construct: purchased Cayman Chemical
T1 sequence (P09917 1-674): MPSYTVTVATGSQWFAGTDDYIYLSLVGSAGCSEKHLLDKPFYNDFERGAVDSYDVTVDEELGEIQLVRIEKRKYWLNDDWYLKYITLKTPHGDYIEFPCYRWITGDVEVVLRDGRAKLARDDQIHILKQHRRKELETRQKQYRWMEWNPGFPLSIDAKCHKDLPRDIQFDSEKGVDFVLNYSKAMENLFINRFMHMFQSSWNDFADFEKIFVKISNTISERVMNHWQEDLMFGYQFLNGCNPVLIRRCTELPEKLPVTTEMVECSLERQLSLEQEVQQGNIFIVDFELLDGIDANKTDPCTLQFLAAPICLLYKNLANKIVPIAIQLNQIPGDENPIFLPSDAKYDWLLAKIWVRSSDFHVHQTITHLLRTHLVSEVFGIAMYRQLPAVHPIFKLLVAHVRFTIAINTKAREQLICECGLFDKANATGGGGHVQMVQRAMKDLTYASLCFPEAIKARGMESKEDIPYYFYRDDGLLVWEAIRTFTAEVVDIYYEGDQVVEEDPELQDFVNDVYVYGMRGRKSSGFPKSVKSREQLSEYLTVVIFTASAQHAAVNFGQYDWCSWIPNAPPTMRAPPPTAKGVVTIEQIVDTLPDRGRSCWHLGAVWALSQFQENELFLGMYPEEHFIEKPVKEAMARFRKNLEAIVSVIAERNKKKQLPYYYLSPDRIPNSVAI

B1: 5LOX: Human recombinant 5LOX (Cayman Chemical) (protein, UniProt P09917 1-674, looked up)
Polyunsaturated fatty acid …: T1 sequence (P09917 1-674)

Experiments:
human 5LOX = target: T1, human 5LOX; assay: Microtiter plate binding of SOD1 to immobilized 5LOX; settings: Scatchard analysis, estimate
Description: In order to circumvent these limitations of the BIAcore technique, a conceptually different strategy was employed to assess SOD1 binding to immobilized 5LOX. Standard 96 well polypropylene microtiter plates were coated with 5LOX by overnight incubation with the protein, which allows adsorption of the 5LOX through mostly hydrophobic interactions with the plate surface. As a control, half of each microplate was coated with BSA. The entire plate was then blocked with BSA, and subsequently incubated for 1 H with various concentrations of SOD1 dissolved in physiologic saline. Binding of SOD1 to the 5LOX-coated (or BSA-coated) microplate wells was quantified using alkaline phosphatase-conjugated anti-SOD1 polyclonal IgG, and p-nitrophenol as the chromophore. FIG. 15 illustrates preliminary binding data obtained from this experiment. SOD1 bound strongly to 5LOX-coated microplates but not to BSA-coated surfaces. […] Experiments may also be conducted to assess differences in 5LOX binding to wild-type versus mutant SOD1.

human wild-type SOD1 = target: T2, human wild-type SOD1 (Homo sapiens, UniProt P00441); assay: BIAcore binding of 5LOX to immobilized SOD1; settings: preliminary Scatchard analysis, upper bound
T2 construct: purified to homogeneity from human erythrocytes; from tissue; host or cells: human erythrocytes
T2 sequence (P00441 2-154 limits assumed): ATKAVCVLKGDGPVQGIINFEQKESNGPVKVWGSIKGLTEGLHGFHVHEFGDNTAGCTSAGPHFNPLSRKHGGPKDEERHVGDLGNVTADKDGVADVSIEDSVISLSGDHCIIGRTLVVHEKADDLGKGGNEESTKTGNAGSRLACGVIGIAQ
Excerpt: Using several techniques that allow the study of protein-protein binding interactions in vitro, the interaction of SOD1 with 5LOX may be investigated. One approach involves the use of BIAcore instrumentation (Amersham-Pharmacia, Upsala, Sweden). The BIA (biomolecular interaction analysis) system consists of a solid-phase support upon which a protein (the ligand) can be covalently immobilized. This surface is placed in contact with a microfluidic cartridge, which dispenses a second protein (the analyte) across the binding surface. Adherence of the analyte to the immobilized ligand is measured by surface plasmon resonance (SPR) spectrometry. The surface plasmon resonance detector responds to refractive index changes in the vicinity of the sensor surface as the immobilized species interacts with its binding partner in the fluid phase. Data output from the BIAcore instrument takes the form of “sensorgrams” (FIG. 14A). Sensorgrams can be interpreted qualitatively, to assess whether a nonspecific binding event occurs, or quantitatively, in order to measure binding affinity.
In a previous experiment, human wild-type SOD1 (purified to homogeneity from human erythrocytes) was covalently immobilized to the BIAcore chip via surface lysine residues, using standard carbodiimide coupling chemistry. […] Experiments to quantitate the binding affinity are conducted. […]

Molecule	Kd (human 5LOX)	Kd (human wild-type SOD1)
SOD1: Cu, Zn-superoxide dismutase, binding partner of 5LOX	1400 nM	
B1		≤ 20000 nM
